Test results reported in PMC10397247.
Read-outs that look alike come from different tables or passages of the source. Values belong to the binder of their own block, whether it stands above or below them.

Assays:
O3-AA = target: T1, O3-AA; assay: two-hybrid library CCmax; conditions: mean of both orientations;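 note: natural log of median RNA to DNA barcode read ratio; higher means stronger binding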
T1 chain: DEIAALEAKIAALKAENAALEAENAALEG

O5-AA = target: T2, O5-AA; assay: two-hybrid library CCmax; conditions: mean of both orientations;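 note: natural log of median RNA to DNA barcode read ratio; higher means stronger binding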
T2 chain: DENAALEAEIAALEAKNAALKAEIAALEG

O4-AA = target: T3, O4-AA; assay: two-hybrid library CCmax; conditions: mean of both orientations;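 note: natural log of median RNA to DNA barcode read ratio; higher means stronger binding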
T3 chain: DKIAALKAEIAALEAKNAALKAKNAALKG

P9-AA = target: T4, P9-AA; assay: two-hybrid library CCmax; conditions: mean of both orientations;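 note: natural log of median RNA to DNA barcode read ratio; higher means stronger binding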
T4 chain: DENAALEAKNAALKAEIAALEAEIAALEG

O6-AA = target: T5, O6-AA; assay: two-hybrid library CCmax; conditions: mean of both orientations;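 note: natural log of median RNA to DNA barcode read ratio; higher means stronger binding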
T5 chain: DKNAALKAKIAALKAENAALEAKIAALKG

O13-AA = target: T6, O13-AA; assay: two-hybrid library CCmax;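 note: natural log of median RNA to DNA barcode read ratio; higher means stronger binding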
T6 chain: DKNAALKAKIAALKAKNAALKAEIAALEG

O7-AA = target: T7, O7-AA; assay: two-hybrid library CCmax; conditions: mean of both orientations
T7 chain: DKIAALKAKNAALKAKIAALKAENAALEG

O8-AA = target: T8, O8-AA; assay: two-hybrid library CCmax; conditions: mean of both orientations
T8 chain: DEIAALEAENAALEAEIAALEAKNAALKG

P10-AA = target: T9, P10-AA; assay: two-hybrid library CCmax; conditions: mean of both orientations
T9 chain: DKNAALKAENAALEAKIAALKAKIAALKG

O2-AA = target: T10, O2-AA; assay: two-hybrid library CCmax; conditions: mean of both orientations
T10 chain: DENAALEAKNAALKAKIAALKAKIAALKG

O14-AA = target: T11, O14-AA; assay: two-hybrid library CCmax; conditions: mean of both orientations
T11 chain: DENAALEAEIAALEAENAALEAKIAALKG

O14-bA = target: T12, O14-bA; assay: two-hybrid library CCNG1
T12 chain: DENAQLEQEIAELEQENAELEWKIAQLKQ

4H797-bA = target: T13, 4H797-bA; assay: two-hybrid library CCNG1
T13 chain: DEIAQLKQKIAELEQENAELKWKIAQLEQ

4H683-bA = target: T14, 4H683-bA; assay: two-hybrid library CCNG1
T14 chain: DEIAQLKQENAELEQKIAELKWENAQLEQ

4H953-bA = target: T15, 4H953-bA; assay: two-hybrid library CCNG1
T15 chain: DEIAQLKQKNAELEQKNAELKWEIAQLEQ

4H575-bA = target: T16, 4H575-bA; assay: two-hybrid library CCNG1
T16 chain: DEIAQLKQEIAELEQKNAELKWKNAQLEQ

4H918-bA = target: T17, 4H918-bA; assay: two-hybrid library CCNG1
T17 chain: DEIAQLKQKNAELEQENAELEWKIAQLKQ

4H968-bA = target: T18, 4H968-bA; assay: two-hybrid library CCNG1
T18 chain: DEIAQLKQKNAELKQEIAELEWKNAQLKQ

4H457-bA = target: T19, 4H457-bA; assay: two-hybrid library CCNG1
T19 chain: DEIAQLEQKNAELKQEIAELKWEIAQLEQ

4H855-bA = target: T20, 4H855-bA; assay: two-hybrid library CCNG1
T20 chain: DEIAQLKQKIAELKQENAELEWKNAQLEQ

4H780-bA = target: T21, 4H780-bA; assay: two-hybrid library CCNG1
T21 chain: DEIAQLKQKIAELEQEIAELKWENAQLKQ

4H754-bA = target: T22, 4H754-bA; assay: two-hybrid library CCNG1
T22 chain: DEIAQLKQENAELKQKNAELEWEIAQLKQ

O11-AA = target: T23, O11-AA; assay: two-hybrid library CCmax
T23 chain: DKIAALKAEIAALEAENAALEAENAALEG

4H953-bN = target: T24, 4H953-bN; assay: two-hybrid library CCNG1
T24 chain: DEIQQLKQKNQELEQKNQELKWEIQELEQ

4H918-bN = target: T25, 4H918-bN; assay: two-hybrid library CCNG1
T25 chain: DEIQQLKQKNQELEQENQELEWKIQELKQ

4H968-bN = target: T26, 4H968-bN; assay: two-hybrid library CCNG1
T26 chain: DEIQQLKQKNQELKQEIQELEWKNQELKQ

4H967-bN = target: T27, 4H967-bN; assay: two-hybrid library CCNG1
T27 chain: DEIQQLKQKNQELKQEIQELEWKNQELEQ

4H3041-bH = target: T28, 4H3041-bH; assay: two-hybrid library CCNG1
T28 chain: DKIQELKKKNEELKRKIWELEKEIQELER

4H3297-bH = target: T29, 4H3297-bH; assay: two-hybrid library CCNG1
T29 chain: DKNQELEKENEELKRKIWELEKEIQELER

4H56-bH = target: T30, 4H56-bH; assay: two-hybrid library CCNG1
T30 chain: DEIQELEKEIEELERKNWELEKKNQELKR

4H2585-bH = target: T31, 4H2585-bH; assay: two-hybrid library CCNG1
T31 chain: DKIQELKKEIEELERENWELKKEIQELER

4H2859-bH = target: T32, 4H2859-bH; assay: two-hybrid library CCNG1
T32 chain: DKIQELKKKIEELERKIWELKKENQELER

4H3364-bH = target: T33, 4H3364-bH; assay: two-hybrid library CCNG1
T33 chain: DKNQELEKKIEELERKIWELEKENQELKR

4H2760-bH = target: T34, 4H2760-bH; assay: two-hybrid library CCNG1
T34 chain: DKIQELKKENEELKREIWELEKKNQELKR

4H3381-bH = target: T35, 4H3381-bH; assay: two-hybrid library CCNG1
T35 chain: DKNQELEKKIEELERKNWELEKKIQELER

4H584-bH = target: T36, 4H584-bH; assay: two-hybrid library CCNG1
T36 chain: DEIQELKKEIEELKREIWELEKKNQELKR

4H932-bH = target: T37, 4H932-bH; assay: two-hybrid library CCNG1
T37 chain: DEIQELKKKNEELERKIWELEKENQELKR

4H349-bH = target: T38, 4H349-bH; assay: two-hybrid library CCNG1
T38 chain: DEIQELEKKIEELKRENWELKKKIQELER

4H264-bH = target: T39, 4H264-bH; assay: two-hybrid library CCNG1
T39 chain: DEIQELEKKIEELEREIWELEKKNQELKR

4H3974-bA = target: T40, 4H3974-bA; assay: two-hybrid library CCNG1
T40 chain: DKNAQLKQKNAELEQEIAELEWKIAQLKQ

4H717-bA = target: T41, 4H717-bA; assay: two-hybrid library CCNG1
T41 chain: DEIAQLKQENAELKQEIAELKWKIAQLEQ

4H730-bH = target: T42, 4H730-bH; assay: two-hybrid library CCNG1
T42 chain: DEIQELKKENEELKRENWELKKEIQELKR

4H2518-bH = target: T43, 4H2518-bH; assay: two-hybrid library CCNG1
T43 chain: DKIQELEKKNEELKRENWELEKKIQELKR

4H2931-bH = target: T44, 4H2931-bH; assay: two-hybrid library CCNG1
T44 chain: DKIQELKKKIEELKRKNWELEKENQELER

4H949-bH = target: T45, 4H949-bH; assay: two-hybrid library CCNG1
T45 chain: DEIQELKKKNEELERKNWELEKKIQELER

4H796-bH = target: T46, 4H796-bH; assay: two-hybrid library CCNG1
T46 chain: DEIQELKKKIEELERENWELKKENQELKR

Binder: DKNAALKAKIAALKAKNAALKAEIAALEG [O13-AA]
- interaction score (O3-AA): -1.86
- interaction score (O5-AA): -0.257
- interaction score (O4-AA): -1.61
- interaction score (P9-AA): -1.16
- interaction score (O6-AA): 1.5
- interaction score (O13-AA): -1.69
- interaction score (O7-AA): -1.54
- interaction score (O8-AA): 1.18
- interaction score (P10-AA): -1.54
- interaction score (O2-AA): -1.56
- interaction score (O14-AA): 2.19

Binder: DKIAALKAEIAALEAENAALEAENAALEG [O11-AA]
- interaction score (O3-AA): -0.899
- interaction score (O5-AA): -1.47
- interaction score (O4-AA): 1.9
- interaction score (P9-AA): -1.22
- interaction score (O6-AA): -0.7
- interaction score (O13-AA; mean of both orientations): -1.08
- interaction score (O7-AA): -0.673
- interaction score (O8-AA): -1.67
- interaction score (P10-AA): -0.539
- interaction score (O2-AA): -0.959
- interaction score (O11-AA): -0.752
- interaction score (O14-AA): -1.2

Binder: DEIQQLKQKNQELEQENQELEWKIQELKQ [4H918-bN]
- interaction score (O14-bA): -0.665
- interaction score (4H953-bN): 0.301
- interaction score (4H918-bN): -0.715
- interaction score (4H968-bN): -0.218
- interaction score (4H967-bN): -0.522

Further lines, results first:

- interaction score (O14-bA): -0.0398
- interaction score (4H797-bA): -1.25
- interaction score (4H683-bA): 0.308
- interaction score (4H953-bA): -0.948
- interaction score (4H575-bA): -1.69
- interaction score (4H918-bA): -0.845
- interaction score (4H968-bA): 0.0968
- interaction score (4H457-bA): -0.968
- interaction score (4H855-bA): -1.04
- interaction score (4H780-bA): -1.18
- interaction score (4H754-bA): -1.54
Binder: DEIAQLEQKNAELKQEIAELKWEIAQLEQ [4H457-bA]

- interaction score (4H3041-bH): 0.765
- interaction score (4H3297-bH): 0.251
- interaction score (4H56-bH): -1.35
- interaction score (4H2585-bH): 0.0674
- interaction score (4H2859-bH): -0.0624
- interaction score (4H3364-bH): 0.178
- interaction score (4H2760-bH): -0.186
- interaction score (4H3381-bH): 0.567
- interaction score (4H584-bH): 0.647
- interaction score (4H932-bH): 0.604
- interaction score (4H349-bH): -1.75
- interaction score (4H264-bH): -1.77
- interaction score (4H3974-bA): 0.345
- interaction score (4H717-bA): -0.768
- interaction score (4H730-bH): 0.0916
- interaction score (4H2518-bH): 1
- interaction score (4H2931-bH): -0.584
- interaction score (4H949-bH): 0.12
- interaction score (4H796-bH): 0.388
Binder: DKIQELEKKNEELKRENWELEKKIQELKR [4H2518-bH]
